One data set concerns PQPQLPYPQPQLP
The data set is described as follows: Competitive assay of PEP specificity for gliadin peptide versus Suc-Ala-Pro-pNA. To be noted: PQPQLPYPQPQLP vs Suc-Ala-Pro-pNA. It counts as biochemical, wheat. As for the experimental part:
Substrate Specificity. In addition to the reference substrates above, enzyme specificity was also evaluated using two immunogenic peptides derived from the sequence of γ-gliadin proteins in gluten. Both peptides were synthesized using solid-phase peptide synthesis. The peptide (SEQ ID NO:4) […] contains the immunodominant γII-epitope, and is resistant to proteolysis by pepsin or any pancreatic enzyme. PEP specificity toward this substrate was assessed in a competitive assay in which 100 μM (SEQ ID NO:4) […] and 100 μM Suc-Ala-Pro-pNA were mixed and reacted with 0.02 μM PEP at 25° C. The initial velocity of Suc-Ala-Pro-pNA cleavage was measured spectrophotometrically, whereas the initial velocity of (SEQ ID NO:4) […] hydrolysis was determined via HPLC. The apparent specificity, kcat/KM, for the hydrolysis of (SEQ ID NO:4) […] could be determined based on the known kcat/KM of the enzyme for Suc-Ala-Pro-pNA and the observed reaction rates of the two substrates. […]
The kcat/KM values of each PEP were determined in an assay mixture containing (SEQ ID NO:4) […] as well as Suc-Ala-Pro-pNA as a competing substrate. The rates of disappearance of both substrates were determined by independent detection methods. The initial rate of disappearance of (SEQ ID NO:4) […] was measured by HPLC, whereas the rate of consumption of Suc-Ala-Pro-pNA was measured spectrophotometrically. […]

Data set [1] in a line: Kinetic analysis with reference substrate Succinyl-Ala-Pro-pNA. It counts as biochemical. To be noted: Succinyl-Ala-Pro-p-nitroanilide hydrolysis. As for the experimental part:
(§1) Activity Assays. Post-proline cleavage activity was measured using Z-Gly-Pro-p-nitroanilide and Succinyl-Ala-Pro-p-nitroanilide (Bachem, CA). Z-Gly-Pro-pNA was dissolved in a PBS:water:dioxane (8:1.2:0.8) assay mixture. The concentration of Z-Gly-Pro-pNA was varied from 100-600 μM. Although the substrate Z-Gly-Pro-pNA was effective in detecting enzyme activity, its insolubility at higher concentrations precluded kinetic measurements under substrate-saturated conditions. In contrast, Succinyl-Ala-Pro-pNA, had the advantage of high water solubility at all pH values tested, and was therefore a preferred substrate for kinetic studies. […] Reaction mixtures ([…] consisted of 30 μl of 10× pH buffer, final concentration of 0.01 μM enzyme, and Suc-Ala-Pro-pNA to final concentrations between 100 μM to 4 mM.
Kinetic Analysis with Reference Substrates. The activity of each PEP was initially evaluated using the standard chromogenic substrate succinyl-Ala-Pro-pNA. Release of the p-nitroaniline was detected at 410 nm, and kinetic data was fitted to the Michaelis-Menten relationship. Succinyl-Ala-Pro-pNA was selected as a reference substrate instead of the more commonly used Z-Gly-Pro-pNA due to the low solubility of the latter substrate, which necessitated use of co-solvents. The calculated kcat and KM values of FM, MX and SC PEPs for succinyl-Ala-Pro-pNA are tabulated (Table 3). […] The higher specificity of MX can be attributed mainly to its higher affinity for the substrate, as reflected in the KM.

Data set [2] can be described thus: Enzyme activity vs. pH (kcat titration). To be noted: for active site pKa: 100-4000 μM succinyl-Ala-Pro-pNA. It counts as biochemical. As for the experimental part: FIG. 8. Effect of pH on the turnover numbers (kcat) of FM PEP, MX PEP and SC PEP.
as §1
Enzyme Activity vs. pH. The luminal environment of the duodenum is approximately at pH 6. Therefore, a therapeutically useful PEP must retain high specific activity at that pH. The steady state turnover rate, kcat, of each PEP was titrated in various pH conditions using 100-4000 μM succinyl-Ala-Pro-pNA, shown in FIG. 8. […] Such conformational changes have been implicated in the catalytic cycle of the structurally characterized porcine brain PEP.

Data set [3] has as its system PQPQLPYPQPQLP, 33-mer and pepsin-treated gluten. The data set is described as follows: Competitive proteolysis in pepsin-treated gluten with pancreatic enzymes and BBM. To be noted: pancreatic enzymes, BBM. It counts as biochemical, wheat. As for the experimental part:
FIGS. 13A-13B. […] This complex mixture of substrates was treated under physiological conditions with a mixture of pancreatic enzymes (trypsin, chymotrypsin, carboxypeptidase, elastase), brush border membrane enzymes (derived from rat small intestine) and either (A) FM PEP or (B) MX PEP.
The resulting solution was neutralized using 10 M NaOH and diluted to 10 g/L in a phosphate buffer (40 mM, pH 6.5). […] Prolyl endopeptidase (FM or MX; 1×: 500 mU/ml; 5×: 2.5 U/ml; 10×: 5 U/ml) and rat intestinal brush border surface membranes (BB, 1×: 40 mU/ml, 2×: 80 mU/ml, DPP IV activity) were added to a total volume of 150 μl. The mixture was incubated at 37° C. and […] aliquots were taken at 0, 5, 10, 30 and 60 min and immediately heat deactivated.

B1: MX PEP: novel recombinant prolyl endopeptidase from Myxococcus xanthus (Genbank AF127082, SEQ ID NO:47) (protein, listed as Myxococcus xanthus)
chain: MSYPATRAEQVVDTLHGVQVADPYRWLEDEKAPEVQTWMTAQNAHAREALAKFPGREALAARFKELFYTDSVSTPSRRNGRFFYVRTHKDKEKAILYWRQGESGQEKVLLDPNGWSKDGTVSLGTWAVSWDGKKVAFAQKPNAADEAVLHVIDVDSGEWSKVDVIEGGKYATPKWTPDSKGFYYEWLPTDPSIKVDERPGYTTIRYHTLGTEPSKDTVVHERTGDPTTFLQSDLSRDGKYLFVYILRGWSENDVYWKRPGEKDFRLLVKGVGAKYEVHAWKDRFYVLTDEGAPRQRVFEVDPAKPARASWKEIVPEDSSASLLSVSIVGGHLSLEYLKDATSEVRVATLKGKPVRTVQLPGVGAASNLMGLEDLDDAYYVFTSFTTPRQIYKTSVSTGKSELWAKVDVPMNPEQYQVEQVFYASKDGTKVPMFVVHRKDLKRDGNAPTLLYGYGGFNVNMEANFRSSILPWLDAGGVYAVANLRGGGEYGKAWHDAGRLDKKQNVFDDFHAAAEYLVQQKYTQPKRLAIYGGSNGGLLVGAAMTQRPELYGAVVCAVPLLDMVRYHLFGSGRTWIPEYGTAEKPEDFKTLHAYSPYHHVRPDVRYPALLMMAADHDDRVDPMHARKFVAAVQNSPGNPATALLRIEANAGHGGADQVAKAIESSVDLYSFLFQVLDVQGAQGGVAAQGR
For the molecule B1, the “higher specificity for the gluten peptide as compared to the chromogenic substrate” value with PQPQLPYPQPQLP amounted to 5 fold. Besides, in data set [1], the Kcat is 51 s⁻¹ and the Km turned out to be 350 µM. For the same molecule, the “active site pKa” value in data set [2] was approximately 6. Besides, in data set [3], the “relative rates of proteolysis of PQPQLPYPQPQLP, 33-mer and other gluten peptides” value is “hydrolysis of the 33-mer occurred at a slower rate”; the “time for breakdown of PQPQLPYPQPQLP and other smaller peptides” value stood at 10 min.

B2: FM PEP: recombinant prolyl endopeptidase from Flavobacterium meningosepticum (Genbank D10980) (protein)
chain: QNSNVLKYPETKKVSHTDTYFGTQVSDPYRWLEDDRAEDTKAWVQQEVKFTQDYLAQIPFRDQLKKQLMDIWNYEKISAPFKKGKYTYFSKNDGLQAQSVLYRKDAAGKTEVFLDPNKFSEKGTTSLASVSFNKKGTLVAYSISEGGSDWNKIIILDAETKKQLDETLLDVKFSGISWLGDEGFFYSSYDKPKEGSVLSGMTDKHKVYFHKLGTKQSQDELIIGGDKFPRRYIGAYVTDDQRYLVVSAANATNGNELYIKDLKNKTDFIPIITGFDSNVNVADTDGDTLYLFTDKDAPNKRLVKTTIQNPKAETWKDVIAETSEPLEINTGGGYFFATYMKDAIDQVKQYDKNGKLVRAIKLPGSGNASGFGGEKTEKDLYYSFTNYITPPTIFKYNVTTGNSEVYQKPKVKFNPENYVSEQVFYTSSDGTKIPMMISYKKGLKKDGKNPTILYSYGGFNISLQPAFSVVNAIWMENGGIYAVPNIRGGGEYGKKWHDAGTKMQKKNVFNDFIAAGEYLQKNGYTSKEYMALSGRSNGGLLVGATMTMRPDLAKVAFPGVGVLDMLRYNKFTAGAGWAYDYGTAEDSKEMFEYLKSYSPVHNVKAGTCYPSTMVITSDHDDRVVPAHSFKFGSELQAKQSCKNPILIRIETNAGHGAGRSTEQVVAENADLLSFALYEMGIKSLK
Regarding B2, in the data set on PQPQLPYPQPQLP, the “higher specificity for the gluten peptide as compared to the chromogenic substrate” value is 5 fold. For the same molecule, in data set [1], the Kcat amounted to 33 s⁻¹ and the Km is 910 µM. Besides, the “active site pKa” value in data set [2] is approximately 6. The molecule also had a pH optimum in data set [2] (as stated in the description, no method given) of approximately 7. For the same molecule, the “relative rates of proteolysis of PQPQLPYPQPQLP, 33-mer and other gluten peptides” value in data set [3] was “at comparable rates”.

For the origin of these results see patent publication US8796201B2 (The Board of Trustees of the Leland Stanford Junior …, priority 2002, dated 2014).
